Assays:
[1] = molecular target: fibrinogen; test: cell-based or functional assay
[2] = molecular target: canine fibrinogen (canine) (UniProt P68213); test: cell-based or functional assay

CIfA protein on the surface of S. aureus strain Newman cells (from UniProt Q53653 40-899) (receptor)
titre in microtitre clumping assay (Newman wild-type) [1]: 2048 titre
decrease in attachment of the fibrinogen receptor mutant to ex vivo polyvinyl chloride and polyethylene tubings exposed to canine blood [2]: > 80%
loss of adherence of the fibrinogen receptor mutant (cIfA::Tn917) to canine fibrinogen coated PMMA coverslips [2]: > 95%

glutathione S-transferase fusion protein of CIfA Region A (residues 23-550) expressed from pCF24 (from UniProt Q53653 23-550)
Inhibiting concentration, inhibition of clumping by lysate [1]: 9.37 micro g

glutathione S-transferase fusion protein of CIfA regions R, W and M (residues 546-933) expressed from pCF25 (from UniProt Q53653 546-933)
Inhibiting concentration, inhibition of clumping by lysate [1]: > 300 micro g

glutathione S-transferase fusion protein of CIfA residues 221-550 expressed from pCF31 (from UniProt Q53653 221-550)
Inhibiting concentration, inhibition of clumping by lysate [1]: 9.37 micro g

From patent US20070036814A1
